Test results: patent US20200223889A1 (Novo Nordisk, published 2020)
Positions of bridges follow the written chain, without caps; N, C: chain ends. Non-standard residues stand in square brackets, D forms with d. Pro(trans-4-guanidino) = N=C(N)N[C@H]1CN[C@H](C(=O)O)C1; Pro(cis-4-guanidino) = NC(N)=N[C@@H]1CN[C@H](C(=O)O)C1; Hyp = O=C(O)[C@@H]1C[C@@H](O)CN1; Aib = CC(C)(N)C(=O)O; GABA = NCCCC(=O)O; Sar = CNCC(=O)O

B1: Chem. 27 (peptide)
peptide: cyclo(C[Hyp][dF]RWC[Hyp][dF]RW)
modifications: disulfide 1-6
SMILES: N=C(N)NCCC[C@@H]1NC(=O)[C@@H](Cc2ccccc2)NC(=O)[C@@H]2C[C@@H](O)CN2C(=O)[C@@H]2CSSC[C@H](NC(=O)[C@H](Cc3c[nH]c4ccccc34)NC1=O)C(=O)N1C[C@H](O)C[C@H]1C(=O)N[C@H](Cc1ccccc1)C(=O)N[C@@H](CCCNC(=N)N)C(=O)N[C@@H](Cc1c[nH]c3ccccc13)C(=O)N2
notes: also called c[c[Cys-Hyp-D-Phe-Arg-Trp-Cys]-Hyp-D-Phe-Arg-Trp]
B2: Chem. 31 (peptide)
peptide: cyclo(C[Sar]H[dF]RWC[Sar]H[dF]RW)
modifications: disulfide 1-7
SMILES: CN1CC(=O)N[C@@H](Cc2c[nH]cn2)C(=O)N[C@H](Cc2ccccc2)C(=O)N[C@@H](CCCNC(=N)N)C(=O)N[C@@H](Cc2c[nH]c3ccccc23)C(=O)N[C@H]2CSSC[C@H](NC(=O)[C@H](Cc3c[nH]c4ccccc34)NC(=O)[C@H](CCCNC(=N)N)NC(=O)[C@@H](Cc3ccccc3)NC(=O)[C@H](Cc3c[nH]cn3)NC(=O)CN(C)C2=O)C1=O
notes: also called c[c[Cys-Sar-His-D-Phe-Arg-Trp-Cys]-Sar-His-D-Phe-Arg-Trp]
B3: Chem. 32 (peptide)
peptide: cyclo(C[Hyp]H[dF]RWC[Hyp]H[dF]RW)
modifications: disulfide 1-7
SMILES: N=C(N)NCCC[C@@H]1NC(=O)[C@@H](Cc2ccccc2)NC(=O)[C@H](Cc2c[nH]cn2)NC(=O)[C@@H]2C[C@@H](O)CN2C(=O)[C@@H]2CSSC[C@H](NC(=O)[C@H](Cc3c[nH]c4ccccc34)NC1=O)C(=O)N1C[C@H](O)C[C@H]1C(=O)N[C@@H](Cc1c[nH]cn1)C(=O)N[C@H](Cc1ccccc1)C(=O)N[C@@H](CCCNC(=N)N)C(=O)N[C@@H](Cc1c[nH]c3ccccc13)C(=O)N2
notes: also called c[c[Cys-Hyp-His-D-Phe-Arg-Trp-Cys]-Hyp-His-D-Phe-Arg-Trp]
B4: Chem. 36 (peptide)
peptide: cyclo(CVH[dF]RWCVH[dF]RW)
modifications: disulfide 1-7
SMILES: CC(C)[C@@H]1NC(=O)[C@@H]2CSSC[C@H](NC(=O)[C@H](Cc3c[nH]c4ccccc34)NC(=O)[C@H](CCCNC(=N)N)NC(=O)[C@@H](Cc3ccccc3)NC(=O)[C@H](Cc3c[nH]cn3)NC1=O)C(=O)N[C@@H](C(C)C)C(=O)N[C@@H](Cc1c[nH]cn1)C(=O)N[C@H](Cc1ccccc1)C(=O)N[C@@H](CCCNC(=N)N)C(=O)N[C@@H](Cc1c[nH]c3ccccc13)C(=O)N2
notes: also called c[c[Cys-Val-His-D-Phe-Arg-Trp-Cys]-Val-His-D-Phe-Arg-Trp]
B5: Chem. 35 (peptide)
peptide: cyclo(C[GABA]H[dF]RWC[GABA]H[dF]RW)
modifications: disulfide 1-7
SMILES: N=C(N)NCCC[C@@H]1NC(=O)[C@@H](Cc2ccccc2)NC(=O)[C@H](Cc2c[nH]cn2)NC(=O)CCCNC(=O)[C@@H]2CSSC[C@H](NC(=O)[C@H](Cc3c[nH]c4ccccc34)NC1=O)C(=O)NCCCC(=O)N[C@@H](Cc1c[nH]cn1)C(=O)N[C@H](Cc1ccccc1)C(=O)N[C@@H](CCCNC(=N)N)C(=O)N[C@@H](Cc1c[nH]c3ccccc13)C(=O)N2
notes: also called c[c[Cys-GABA-His-D-Phe-Arg-Trp-Cys]-GABA-His-D-Phe-Arg-Trp]
B6: Chem. 29 (peptide)
peptide: cyclo(CAH[dF][Pro(cis-4-guanidino)]WCAH[dF][Pro(cis-4-guanidino)]W)
modifications: disulfide 1-7
SMILES: C[C@@H]1NC(=O)[C@@H]2CSSC[C@H](NC(=O)[C@H](Cc3c[nH]c4ccccc34)NC(=O)[C@@H]3C[C@H](N=C(N)N)CN3C(=O)[C@@H](Cc3ccccc3)NC(=O)[C@H](Cc3c[nH]cn3)NC1=O)C(=O)N[C@@H](C)C(=O)N[C@@H](Cc1c[nH]cn1)C(=O)N[C@H](Cc1ccccc1)C(=O)N1C[C@@H](N=C(N)N)C[C@H]1C(=O)N[C@@H](Cc1c[nH]c3ccccc13)C(=O)N2
notes: also called c[c[Cys-Ala-His-D-Phe-4cis-GuaPro-Trp-Cys]-Ala-His-D-Phe-4cis-GuaPro-Trp]
B7: Chem. 39 (peptide)
peptide: cyclo(C[Aib]P[dF]RWC[Aib]P[dF]RW)
modifications: disulfide 1-7
SMILES: CC1(C)NC(=O)[C@@H]2CSSC[C@H](NC(=O)[C@H](Cc3c[nH]c4ccccc34)NC(=O)[C@H](CCCNC(=N)N)NC(=O)[C@@H](Cc3ccccc3)NC(=O)[C@@H]3CCCN3C1=O)C(=O)NC(C)(C)C(=O)N1CCC[C@H]1C(=O)N[C@H](Cc1ccccc1)C(=O)N[C@@H](CCCNC(=N)N)C(=O)N[C@@H](Cc1c[nH]c3ccccc13)C(=O)N2
notes: also called c[c[Cys-Aib-Pro-D-Phe-Arg-Trp-Cys]-Aib-Pro-D-Phe-Arg-Trp]
B8: Chem. 40 (peptide)
peptide: cyclo(C[Aib]H[dF]KWC[Aib]H[dF]KW)
modifications: disulfide 1-7
SMILES: CC1(C)NC(=O)[C@@H]2CSSC[C@H](NC(=O)[C@H](Cc3c[nH]c4ccccc34)NC(=O)[C@H](CCCCN)NC(=O)[C@@H](Cc3ccccc3)NC(=O)[C@H](Cc3c[nH]cn3)NC1=O)C(=O)NC(C)(C)C(=O)N[C@@H](Cc1c[nH]cn1)C(=O)N[C@H](Cc1ccccc1)C(=O)N[C@@H](CCCCN)C(=O)N[C@@H](Cc1c[nH]c3ccccc13)C(=O)N2
notes: also called c[c[Cys-Aib-His-D-Phe-Lys-Trp-Cys]-Aib-His-D-Phe-Lys-Trp]
B9: Chem. 28 (peptide)
peptide: cyclo(CAH[dF][Pro(trans-4-guanidino)]WCAH[dF][Pro(trans-4-guanidino)]W)
modifications: disulfide 1-7
SMILES: C[C@@H]1NC(=O)[C@@H]2CSSC[C@H](NC(=O)[C@H](Cc3c[nH]c4ccccc34)NC(=O)[C@@H]3C[C@@H](NC(=N)N)CN3C(=O)[C@@H](Cc3ccccc3)NC(=O)[C@H](Cc3c[nH]cn3)NC1=O)C(=O)N[C@@H](C)C(=O)N[C@@H](Cc1c[nH]cn1)C(=O)N[C@H](Cc1ccccc1)C(=O)N1C[C@H](NC(=N)N)C[C@H]1C(=O)N[C@@H](Cc1c[nH]c3ccccc13)C(=O)N2
notes: also called c[c[Cys-Ala-His-D-Phe-4trans-GuaPro-Trp-Cys]-Ala-His-D-Phe-4trans-GuaPro-Trp]
B10: Chem. 37 (peptide)
peptide: CAHFXWCAHFXW
modifications: D-Phe 4, 10; N-MeArg 5, 11; disulphide Cys1-Cys7; head-to-tail amide Cys1-Trp12
notes: also called c[c[Cys-Ala-His-D-Phe-N-MeArg-Trp-Cys]-Ala-His-D-Phe-N-MeArg-Trp]
B11: Chem. 4 (peptide)
peptide: cyclo(CH[dF]RWGCH[dF]RWG)
modifications: disulfide 1-7
SMILES: N=C(N)NCCC[C@@H]1NC(=O)[C@@H](Cc2ccccc2)NC(=O)[C@H](Cc2c[nH]cn2)NC(=O)[C@@H]2CSSC[C@H](NC(=O)CNC(=O)[C@H](Cc3c[nH]c4ccccc34)NC1=O)C(=O)N[C@@H](Cc1c[nH]cn1)C(=O)N[C@H](Cc1ccccc1)C(=O)N[C@@H](CCCNC(=N)N)C(=O)N[C@@H](Cc1c[nH]c3ccccc13)C(=O)NCC(=O)N2
notes: also called c[c[Cys-His-D-Phe-Arg-Trp-Gly-Cys]-His-D-Phe-Arg-Trp-Gly]
B12: Chem. 30 (peptide)
peptide: cyclo(CPH[dF]RWCPH[dF]RW)
modifications: disulfide 1-7
SMILES: N=C(N)NCCC[C@@H]1NC(=O)[C@@H](Cc2ccccc2)NC(=O)[C@H](Cc2c[nH]cn2)NC(=O)[C@@H]2CCCN2C(=O)[C@@H]2CSSC[C@H](NC(=O)[C@H](Cc3c[nH]c4ccccc34)NC1=O)C(=O)N1CCC[C@H]1C(=O)N[C@@H](Cc1c[nH]cn1)C(=O)N[C@H](Cc1ccccc1)C(=O)N[C@@H](CCCNC(=N)N)C(=O)N[C@@H](Cc1c[nH]c3ccccc13)C(=O)N2
notes: also called c[c[Cys-Pro-His-D-Phe-Arg-Trp-Cys]-Pro-His-D-Phe-Arg-Trp]

Columns and labels:
[1] = target: human melanocortin 1 receptor (human, UniProt Q01726 1-317); assay: cell-based or functional assay
Sequence of human melanocortin 1 receptor (Q01726 whole entry): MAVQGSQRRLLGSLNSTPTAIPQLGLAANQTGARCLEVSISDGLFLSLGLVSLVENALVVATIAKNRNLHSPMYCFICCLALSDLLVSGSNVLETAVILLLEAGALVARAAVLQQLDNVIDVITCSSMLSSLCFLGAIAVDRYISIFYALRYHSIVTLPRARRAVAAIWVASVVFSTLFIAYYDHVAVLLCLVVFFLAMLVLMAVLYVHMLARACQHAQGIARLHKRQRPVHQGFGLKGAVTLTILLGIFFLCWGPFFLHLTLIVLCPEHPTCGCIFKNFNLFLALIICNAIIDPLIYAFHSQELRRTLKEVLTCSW

[2] = target: T1, human melanocortin 4 receptor (human, UniProt P32245 1-332); assay: cell-based or functional assay
T1 sequence (P32245 whole entry): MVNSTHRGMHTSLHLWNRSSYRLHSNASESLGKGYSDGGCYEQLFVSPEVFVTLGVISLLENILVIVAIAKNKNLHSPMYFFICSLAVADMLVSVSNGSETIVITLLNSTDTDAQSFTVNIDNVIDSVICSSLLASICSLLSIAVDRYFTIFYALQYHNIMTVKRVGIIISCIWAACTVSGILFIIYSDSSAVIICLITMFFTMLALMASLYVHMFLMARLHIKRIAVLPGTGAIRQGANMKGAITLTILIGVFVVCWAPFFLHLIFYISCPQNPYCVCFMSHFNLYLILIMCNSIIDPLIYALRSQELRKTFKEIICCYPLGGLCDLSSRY

[3] = target: T1, human melanocortin 4 receptor; assay: competition with 125-NDP-α-MSH, BHK human MC4R membranes
Procedure, shortened: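 Competition binding used membranes from BHK cells stably expressing human MC4R with ¹²⁵I-NDP-α-MSH (apx. […] final), compound at 1 μM–0.001 nM. Incubation was 2 h at 25 °C in HEPES pH 7.0 buffer with CaCl₂, MgSO₄, EGTA, Tween 20 and 0.1% HSA or ovalbumin. Filter-bound radioactivity was fitted by non-linear regression.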

| Binder | MC1R cAMP EC50 [1] | MC4R cAMP EC50 [2] | Ki [3] |
| --- | --- | --- | --- |
| B1 | 50.9 nM | 0.24 nM | 1.01 nM |
| B2 | 7.78 nM | 0.29 nM | 1.67 nM |
| B3 | 1.98 nM | 0.12 nM | 0.37 nM |
| B4 | 1.05 nM | 0.04 nM | 0.12 nM |
| B5 | 0.28 nM | 0.01 nM | 0.03 nM |
| B6 | > 100 nM | 1020 nM | 1210 nM |
| B7 | 56.4 nM | 1.54 nM | 1.8 nM |
| B8 | 11.1 nM | 0.29 nM | 0.31 nM |
| B9 | > 100 nM | 518 nM | 892 nM |
| B10 | 13.1 nM | 1.57 nM | 3.31 nM |
| B11 | 0.67 nM | 0.09 nM | 0.69 nM |
| B12 | 0.61 nM | 0.03 nM | 0.09 nM |
